This is an account of results in patent US20260103686A1, “MICROBIAL STRAIN, PROTEIN, AND METHOD FOR PRODUCING GALLIC ACID USING MICROBIAL STRAIN OR PROTEIN” (UNIVERSITY OF TSUKUBA, priority 2022, published 2026).

What all share (experiment): purified protein, by the assay type
Substrate in data set [1]: O=C(O)c1ccc(O)c(O)c1
It counts as biochemical, Hylemonella gracilis. The settings on record: other: PCA substrate, 200 µM NADPH, 10 µM FAD, pH 7.9, 25° C., 340 nm.

Substrate in data set [2]: O=C(O)c1ccc(O)cc1
The settings on record: other: pHBA substrate, 200 µM NADPH, 10 µM FAD, pH 7.9, 25° C., 340 nm.

Substrate in data set [3]: O=C(O)c1ccc(O)c(O)c1
The settings on record: other: PCA substrate, 200 µM NADPH, 10 µM FAD, pH 7.9, 25° C., 340 nm.

B1: Hylemonella gracilis-derived PobA (HgPobA), protocatechuic acid 5-hydroxylase, wild type, SEQ ID NO: 20 (Hylemonella gracilis ATCC 19624) (protein)
chain: MSYPTRTQVAIIGAGPSGLMLGALLHKAGIDTVVLERQSGDYVLGRIRAGVLEQVTMDLMDEIGVGARMHQEGLVHGGFDMLFQGQRHRIDMNRLTGGQNVMVYGQTEVTRDLMDARQQAGLTTIYEAANVAIHDFGSGKPRVTYEKDGKTHELQCDFIAGCDGFHGVCRDTVKKSASASAIREYEKVYNFGWLGLLSDTPPVHHELIYVNSERGFALCSQRSATRSRYYLQVPLTDKVEQWSDQAFWDELKLRLDPQAREHLVTGPSIEKSIAPLRSFVTEPLRFGRLFLAGDAGHIVPPTGAKGLNLAATDVKYLSAALTEFYQGKSEAGINHYSERCLKRIWRAERFSWWFTSLMHRFPENGEIGQKLQEAELDYIVHSETGARSVAENYVGLPLDFGA
On to B1, for which, in data set [1], the Km – broadly, the concentration of substrate that gives half-maximal velocity – is 260 µM; the kcat (commonly the number of substrate molecules converted per active site and unit of time at saturation) is 0.74 s⁻¹; the kcat/Km – broadly, the turnover number divided by the Michaelis constant – came out at 2800 M⁻¹ s⁻¹. Moreover, in data set [2], the Km was found to be 35 µM, the kcat stood at 5.6 s⁻¹ and the kcat/Km came out at 160000 M⁻¹ s⁻¹.

B2: Hylemonella gracilis-derived PobA (HgPobA, SEQ ID NO: 20) variant HgPobA-TY, T302A/Y393F (gene SEQ ID NO: 37) (Hylemonella gracilis ATCC 19624; T302A/Y393F) (protein)
chain: MSYPTRTQVAIIGAGPSGLMLGALLHKAGIDTVVLERQSGDYVLGRIRAGVLEQVTMDLMDEIGVGARMHQEGLVHGGFDMLFQGQRHRIDMNRLTGGQNVMVYGQTEVTRDLMDARQQAGLTTIYEAANVAIHDFGSGKPRVTYEKDGKTHELQCDFIAGCDGFHGVCRDTVKKSASASAIREYEKVYNFGWLGLLSDTPPVHHELIYVNSERGFALCSQRSATRSRYYLQVPLTDKVEQWSDQAFWDELKLRLDPQAREHLVTGPSIEKSIAPLRSFVTEPLRFGRLFLAGDAGHIVPPAGAKGLNLAATDVKYLSAALTEFYQGKSEAGINHYSERCLKRIWRAERFSWWFTSLMHRFPENGEIGQKLQEAELDYIVHSETGARSVAENFVGLPLDFGA
Turning to B2, in data set [2], the Km turned out to be 34 µM, the kcat came out at 3.1 s⁻¹ and the kcat/Km turned out to be 91000 M⁻¹ s⁻¹. Besides, the Km in data set [3] stood at 41 µM.
